Laboratory results taken from patent publication US20090318535.

Target: human BimEL (Bcl-2-Interacting Mediator of cell death, Extra Long isoform)

B1: human RSK1 (p90rsk/MAPKAP kinase-1) (protein)
chain: MEQDPKPPRLRLWALIPWLPRKQRPRISQTSLPVPGPGSGPQRDSDEGVLKEISITHHVKAGSEKADPSHFELLKVLGQGSFGKVFLVRKVTRPDSGHLYAMKVLKKATLKVRDRVRTKMERDILADVNHPFVVKLHYAFQTEGKLYLILDFLRGGDLFTRLSKEVMFTEEDVKFYLAELALGLDHLHSLGIIYRDLKPENILLDEEGHIKLTDFGLSKEAIDHEKKAYSFCGTVEYMAPEVVNRQGHSHSADWWSYGVLMFEMLTGSLPFQGKDRKETMTLILKAKLGMPQFLSTEAQSLLRALFKRNPANRLGSGPDGAEEIKRHVFYSTIDWNKLYRREIKPPFKPAVAQPDDTFYFDTEFTSRTPKDSPGIPPSAGAHQLFRGFSFVATGLMEDDGKPRAPQAPLHSVVQQLHGKNLVFSDGYVVKETIGVGSYSECKRCVHKATNMEYAVKVIDKSKRDPSEEIEILLRYGQHPNIITLKDVYDDGKHVYLVTELMRGGELLDKILRQKFFSEREASFVLHTIGKTVEYLHSQGVVHRDLKPSNILYVDESGNPECLRICDFGFAKQLRAENGLLMTPCYTANFVAPEVLKRQGYDEGCDIWSLGILLYTMLAGYTPFANGPSDTPEEILTRIGSGKFTLSGGNWNTVSETAKDLVSKMLHVDPHQRLTAKQVLQHPWVTQKDKLPQSQLSHQDLQLVKGAMAATYSALNSSKPTPQLKPIESSILAQRRVRKLPSTTL
- in vitro kinase assay: phosphorylation of BimEL on serines 93/94/98: RSK1 phosphorylates BimEL in vitro on serines 93/94/98 (the degron serines)
